The text below walks through data of PMC3679108, “A Novel Glucagon-Related Peptide (GCRP) and Its Receptor GCRPR Account for Coevolution of Their Family Members in Vertebrates” (PLoS ONE, 2013).

Read-outs that look alike come from different tables or passages of the source. Ends that are not written are not given here. Bounds are passed on as bounds.

The target of assay [1] is chicken GCRP receptor (chicken).
The target of assay [2] is Xenopus GCRP receptor (Xenopus).
The target of assay [3] is medaka GCRP receptor (medaka).
In assay [4] the target is human GCGR (human) (UniProt P47871).
human GCGR (human), sequence (P47871 26-477): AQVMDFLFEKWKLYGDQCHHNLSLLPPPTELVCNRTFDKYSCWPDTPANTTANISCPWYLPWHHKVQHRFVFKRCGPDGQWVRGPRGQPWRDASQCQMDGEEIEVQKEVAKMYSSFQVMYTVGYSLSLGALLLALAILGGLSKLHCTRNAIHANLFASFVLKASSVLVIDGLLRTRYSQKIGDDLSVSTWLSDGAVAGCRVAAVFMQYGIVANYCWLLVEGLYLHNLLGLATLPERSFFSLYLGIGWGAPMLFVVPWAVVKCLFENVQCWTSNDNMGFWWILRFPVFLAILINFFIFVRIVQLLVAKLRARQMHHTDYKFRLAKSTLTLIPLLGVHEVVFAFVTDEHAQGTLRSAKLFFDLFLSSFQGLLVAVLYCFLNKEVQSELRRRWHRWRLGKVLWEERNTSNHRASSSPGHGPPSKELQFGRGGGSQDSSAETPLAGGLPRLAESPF
Assay [5] addresses human GIPR (human) (UniProt P48546).
The target in assay [6] is human GLP1R (human) (UniProt P43220).
human GLP1R (human), sequence (P43220 24-463): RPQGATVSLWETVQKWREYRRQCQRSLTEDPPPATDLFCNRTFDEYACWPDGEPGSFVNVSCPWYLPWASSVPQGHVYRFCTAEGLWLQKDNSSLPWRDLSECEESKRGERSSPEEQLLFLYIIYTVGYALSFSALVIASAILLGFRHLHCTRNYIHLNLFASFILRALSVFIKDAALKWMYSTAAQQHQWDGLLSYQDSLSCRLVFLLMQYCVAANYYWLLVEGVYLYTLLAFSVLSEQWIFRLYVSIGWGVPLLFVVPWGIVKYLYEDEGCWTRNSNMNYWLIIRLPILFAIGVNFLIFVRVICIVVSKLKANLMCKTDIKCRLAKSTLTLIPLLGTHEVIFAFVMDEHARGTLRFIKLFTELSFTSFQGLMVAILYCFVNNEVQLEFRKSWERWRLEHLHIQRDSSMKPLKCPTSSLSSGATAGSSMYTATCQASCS
For assay [7], the target named is medaka GCRP receptor (medaka). The source holds these as a separate data set.
In assay [8] the target is medaka GCRP receptor (medaka). The source holds these as a separate data set.
The target of assay [9] is medaka GCRP receptor (medaka). Description: radioligand binding; competitive displacement on HEK293T cells transfected with GCRPR (300 ng DNA/well, 12-well plates); 100,000 cpm 125I-chGCRP without or with various concentrations of cold peptides, 1 h, binding buffer (serum-free DMEM with 0.1% BSA, pH 7.4); IC50 by nonlinear regression.
Assay [10] has as its target medaka GCRP receptor (medaka). The assay is described as above. The source holds these as a separate data set.
For assay [11], the target named is chicken GCRP receptor (chicken). This is another data set of the same source.
For assay [12], the target named is chicken GLP1R (chicken).
Assay [13] has as its target chimeric chGCRPR/chGLP1R (chicken).
For assay [14], the target named is chimeric chGCRPR/huGLP1R (chicken | human) (UniProt P43220).
chimeric chGCRPR/huGLP1R (chicken | human), sequence (P43220 whole entry, change not shown): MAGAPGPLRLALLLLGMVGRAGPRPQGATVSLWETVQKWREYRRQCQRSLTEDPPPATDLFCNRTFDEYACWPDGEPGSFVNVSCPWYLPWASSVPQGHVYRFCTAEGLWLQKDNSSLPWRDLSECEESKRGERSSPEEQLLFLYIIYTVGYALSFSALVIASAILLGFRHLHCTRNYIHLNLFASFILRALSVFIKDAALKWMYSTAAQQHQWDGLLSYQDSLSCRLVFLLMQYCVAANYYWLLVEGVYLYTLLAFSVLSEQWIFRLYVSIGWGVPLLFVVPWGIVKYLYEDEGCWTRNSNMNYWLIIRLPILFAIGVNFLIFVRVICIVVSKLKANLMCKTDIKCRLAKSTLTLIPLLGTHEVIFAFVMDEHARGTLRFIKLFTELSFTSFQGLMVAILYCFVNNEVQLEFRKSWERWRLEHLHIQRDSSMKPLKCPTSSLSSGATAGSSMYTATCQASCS
Assay [15] deals with Xenopus GCRP receptor (Xenopus). Description: radioligand binding; competitive displacement on HEK293T cells transfected with GCRPR (300 ng DNA/well, 12-well plates); 100,000 cpm 125I-chGCRP without or with various concentrations of cold peptides, 1 h, binding buffer (serum-free DMEM with 0.1% BSA, pH 7.4); IC50 by nonlinear regression.
Assay [16] addresses chicken GCRP receptor (chicken). The assay is described as above.
The target of assay [17] is Xenopus GCRP receptor (Xenopus). This is another data set of the same source.
For assay [18] the target is unchanged. Description: radioligand binding; competitive displacement on HEK293T cells transfected with GCRPR (300 ng DNA/well, 12-well plates); 100,000 cpm 125I-chGCRP without or with various concentrations of cold peptides, 1 h, binding buffer (serum-free DMEM with 0.1% BSA, pH 7.4); IC50 by nonlinear regression. The source holds these as a separate data set.
Assay [19] concerns the target human GLP2R (human) (UniProt O95838).
The target in assay [20] is chicken GCRP receptor (chicken). This is another data set of the same source.
The target is the same in assay [21]. Description: radioligand binding; competitive displacement on HEK293T cells transfected with GCRPR (300 ng DNA/well, 12-well plates); 100,000 cpm 125I-chGCRP without or with various concentrations of cold peptides, 1 h, binding buffer (serum-free DMEM with 0.1% BSA, pH 7.4); IC50 by nonlinear regression. This is another data set of the same source.

human GIPR (human), sequence (P48546 22-466): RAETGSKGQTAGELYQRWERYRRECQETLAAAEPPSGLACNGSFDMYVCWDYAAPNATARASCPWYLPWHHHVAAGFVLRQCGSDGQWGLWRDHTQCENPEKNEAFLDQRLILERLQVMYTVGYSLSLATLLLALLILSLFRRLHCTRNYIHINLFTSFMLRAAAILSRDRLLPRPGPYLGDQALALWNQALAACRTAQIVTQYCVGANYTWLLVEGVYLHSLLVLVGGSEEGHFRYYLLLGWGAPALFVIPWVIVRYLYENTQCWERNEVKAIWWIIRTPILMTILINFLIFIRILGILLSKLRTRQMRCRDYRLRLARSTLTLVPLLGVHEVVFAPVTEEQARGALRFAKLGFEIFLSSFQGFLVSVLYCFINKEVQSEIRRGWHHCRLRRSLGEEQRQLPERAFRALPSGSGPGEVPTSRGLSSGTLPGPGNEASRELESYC
human GLP2R (human), sequence (O95838 whole entry): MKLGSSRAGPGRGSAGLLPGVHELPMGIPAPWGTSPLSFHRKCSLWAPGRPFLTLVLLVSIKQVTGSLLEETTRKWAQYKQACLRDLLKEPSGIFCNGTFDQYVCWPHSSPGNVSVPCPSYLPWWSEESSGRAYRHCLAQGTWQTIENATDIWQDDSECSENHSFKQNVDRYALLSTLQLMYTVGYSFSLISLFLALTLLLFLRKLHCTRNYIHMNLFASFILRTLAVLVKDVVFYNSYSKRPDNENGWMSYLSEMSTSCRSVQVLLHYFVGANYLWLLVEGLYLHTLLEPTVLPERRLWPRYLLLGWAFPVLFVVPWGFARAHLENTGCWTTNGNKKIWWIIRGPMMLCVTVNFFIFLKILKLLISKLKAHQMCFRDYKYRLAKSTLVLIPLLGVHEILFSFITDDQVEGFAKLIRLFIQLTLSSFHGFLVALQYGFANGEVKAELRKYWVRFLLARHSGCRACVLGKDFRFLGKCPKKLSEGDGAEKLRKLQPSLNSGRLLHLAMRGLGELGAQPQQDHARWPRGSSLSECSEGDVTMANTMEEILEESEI

In [1], HADGTFTSDINKILDDMAAKEFLKWLINTKVTQ [Chicken GLP2] registered a CRE-luc reporter, HEK293T cells with the receptor: EC50 of 33.4 nM and a CRE-luc reporter, HEK293T cells with the receptor: Emax (fold induction) of 6.26.
With HTDGMFTSDLTNYLDKMKAKNFVEWLAAIKQQE [Medaka GCRP], the CRE-luc reporter, HEK293T cells with the receptor: EC50 in assay [2] was 94.6 nM; in [1], 68.2 nM; in assay [3], 6.84 nM; in assay [4] it was 175 nM; in [6], 156 nM; in assay [7] it was 6.76 nM. Further, the CRE-luc reporter, HEK293T cells with the receptor: Emax (fold induction) came to 32 in [2]; 6.93 in assay [1]; 7.9 in assay [3]; 2.27 in assay [4]; 2.11 in assay [5]; 20.9 in assay [6]. In assay [8], this molecule returned a cAMP level by Glosensor-22F luminescence in HEK293T cells with the receptor: EC50 of 1.15 nM. Besides, the IC50 in [9] was determined as 327 nM; in [10], 320 nM.
In the case of HAEGTYTSDITSYLEGQAAKEFIAWLVNGR (also: unexplained 'a' after last residue) [Chicken GLP1], the CRE-luc reporter, HEK293T cells with the receptor: EC50 in assay [11] was determined as 18.3 nM; in [12], 0.2 nM; in [13] it was 1.52 nM; in [14] it was 2.29 nM. Further, the CRE-luc reporter, HEK293T cells with the receptor: Emax (fold induction) in assay [11] came out at 5.8; in assay [12] it was 28.2; in assay [13], 12.6; in [14] it was 91.9. For the same molecule, the IC50 in assay [15] and in assay [16] was above 1000 nM throughout.
Take YSEATLASDYSRTMDNMLKKNFVEWLLARREKKSDNVIEPY [Chicken GIP]: in assay [2], the CRE-luc reporter, HEK293T cells with the receptor: EC50 is 274 nM and the CRE-luc reporter, HEK293T cells with the receptor: Emax (fold induction) was determined as 32.4. In assay [1], the CRE-luc reporter, HEK293T cells with the receptor: EC50 came out at 69.2 nM and the CRE-luc reporter, HEK293T cells with the receptor: Emax (fold induction) came to 6.22.
For YAEGTFISDYSIAMDKIHQQDFVNWLLAQKGKKNDWKHNITQ [Human GIP], the CRE-luc reporter, HEK293T cells with the receptor: Emax (fold induction) in assay [5] was 5.21.
In assay [3], HSEGTFSNDYSKYLEDRKAQDFVRWLMNN [Medaka GCG1] showed a CRE-luc reporter, HEK293T cells with the receptor: EC50 of 108 nM and a CRE-luc reporter, HEK293T cells with the receptor: Emax (fold induction) of 4.26.
Regarding HSEGTFSSDLTRYLDKMKAKDFVQWLMN [Xenopus GCRP], the CRE-luc reporter, HEK293T cells with the receptor: EC50 in assay [2] was 2.24 nM; in assay [1], 1.18 nM; in assay [3], 30.6 nM; in assay [4], 182 nM; in [6] it was above 1000 nM. Also, the CRE-luc reporter, HEK293T cells with the receptor: Emax (fold induction) in assay [2] was 30.4; in [1], 6.25; in assay [3], 8.1; in assay [4] it was 2.09; in [5], 1.95; in assay [6] it was 24.1. Also, the cAMP level by Glosensor-22F luminescence in HEK293T cells with the receptor: EC50 in assay [17] is 46 nM. Besides, the values for the IC50 in [15] and in assay [18] were 65.5 nM and 63 nM, respectively.
Turning to HSEGTFTSDFTRYLDKMKAKDFVHWLINT [Chicken GCRP], the CRE-luc reporter, HEK293T cells with the receptor: EC50 in assay [2] stood at 5.86 nM; in assay [1], 0.87 nM; in assay [3], 33.7 nM; in [4], 42.7 nM; in assay [6], 48.9 nM; in [19], 592 nM. The CRE-luc reporter, HEK293T cells with the receptor: EC50 in assay [11] turned out to be 0.32 nM; in assay [12], 8.03 nM; in assay [13], 8.57 nM; in [14], 9.44 nM. Moreover, the CRE-luc reporter, HEK293T cells with the receptor: Emax (fold induction) in assay [2] is 30.1; in [1], 6; in assay [3], 8.12; in assay [4], 6.32; in [5], 3.03; in assay [6] it was 19.8. Moreover, the CRE-luc reporter, HEK293T cells with the receptor: Emax (fold induction) in assay [19] worked out at 6.32; in assay [11], 5.56; in assay [12], 19.2; in assay [13], 7.3; in assay [14], 62.9. Also, the cAMP level by Glosensor-22F luminescence in HEK293T cells with the receptor: EC50 in [20] was 5.8 nM. In addition, the IC50 amounted to 43.5 nM in assay [16] and 43.6 nM in assay [21].

As a reminder, the IC50 is the concentration needed to halve the response being measured. Low values mean inhibition by little substance, high ones a need for much substance.
